We go through two sequences from article PMC12455585.

Holding throughout (test): fluorescence anisotropy
Common to all, as to settings: 50 mM HEPES-NaOH pH 7.2, 50 mM NaCl (50-250 mM in salt series), 20 or 50 nM DNA, 60 min, 25 C

Series [1] relates to OBMg (ComEC OB fold) WT (Moorella glycerini).
In series [2] the test system is OBMg R122A (Moorella glycerini).
Series [3] has as its system OBMg R115A (Moorella glycerini).
Series [4] relates to OBMg K192A (Moorella glycerini).
Series [5] relates to OBMg R112A (Moorella glycerini).
The test system of series [6] is OBMg R150A (Moorella glycerini).
Series [7] concerns OBMg R175A (Moorella glycerini).
Series [8] concerns OBMg R188A (Moorella glycerini).

By Kd is commonly meant the constant that tells how readily two partners part at equilibrium. Regarding GTTCGCAACGAA [12-mer ssDNA], the dissociation constant (Kd) in series [1] came out at 790 nM.

Turning to “GTTCGCAACGAA (double strand) [12 bp dsDNA]”, the Kd in series [1] came to 330 nM. Besides, the binding signal (fold Kd increase vs WT) in series [2], in series [3], in series [4], in series [5], in series [6] and in series [7] was greater than 2 each time. The binding signal (fold Kd increase vs WT) in series [8] is greater than 2.
